Test results: patent US20250043290A1, “RNA SEQUENCES THAT INDUCE FLUORESCENCE OF SMALL MOLECULE FLUOROPHORES, MOLECULAR COMPLEXES, SENSORS, AND METHODS OF USE THEREOF” (CORNELL UNIVERSITY, priority 2021, published 2025)
Marks after values point to notes of the source that are not given here. Blank lines part the entries; values can stand above or below the molecule they belong to.

What was measured:
[1] = Photophysical properties of fluorophores and RNA-fluorophore complexes (Squash study); type: physicochemical
Experimental: All RNAs used for in vitro studies (except the initial hits from SELEX and the DE2-6 mutants) were purified using 8% denaturing PAGE (7M urea) and eluted in 0.3 M NaOAc (pH 5.2) overnight. The RNA was ethanol precipitated and quantified using absorbance in a NanoDrop 2000 spectrometer. All in vitro RNA properties were measured in 40 mM HEPES-KOH (pH 7.4), 100 mM KCl, 0.5 mM MgCl2 buffer unless specified.
Absorption, excitation, and emission spectra were measured using conditions where the RNA is in excess and the fluorophore is limiting to ensure that no free fluorophore contributes to the absorbance or fluorescence signal (FIGS. 7A-7D).
All quantum yields were determined by comparing each RNA-fluorophore complex with Broccli-DFHBI-1T or Corn-DFHO. All measurements for quantum yield were taken in the presence of excess RNA (10 μM final) compared to the fluorophores (0.2 μM final) to avoid interference from unbound fluorophore. The integral of the emission spectra for each Squash-fluorophore complex was compared with the corresponding integrals for Broccoli or Corn to calculate the quantum yield.

HEK293T cells = experiment: RNA assemblies of multivalent Corn or Beetroot in cells; type: cell-based; settings: circular RNA, means±s.d.
Experimental: FIGS. 33A-33C provide the dissociation constant (Kd) of Beetroot homodimer. […] These RNAs were incubated at 20° C. for 12 hours and then analyzed using non-denaturing gel electrophoresis (FIG. 33A). The fraction of Beetroot monomer (FIG. 33B) and Beetroot dimer (FIG. 33C) were quantified after SYBR Gold staining. […] The RNA band marked with an asterisk (*) reflects an RNA side product from in vitro transcription. The same side product band was also observed in FIGS. 27B-27C. Quantification shown in […] is based on two independent experiments. FIG. 33D are images showing genetic encoding of simple macromolecular RNA assemblies in cells using Corn when circular RNAs containing 3 and 5 copies of Corn were expressed in HEK293T cells. Clusters of these Corn-containing RNAs were observed as large intracellular puncta. Data shown here is a representative image from three independent cell cultures. Scale bar, 20 μm. FIG. 33E is a graph showing the quantification of the fraction of Corn and Beetroot in the cell that accumulates in puncta. As the valency of Corn increases from three to five, the fraction of Corn participating in the RNA assembly increases from 28±12% to 57±14%. Compared to 5× Corn, a fraction of 27±11% of 5× Beetroot are participating in the Beetroot RNA assembly. Values are means±s.d. FIG. 33F is a graph showing quantification of RNA assembly size in cells. Shown are the size distribution of RNA assemblies created using the indicated multivalent Corn or Beetroot RNA. As the valency of Corn increases from three to five, an increase in the median RNA assembly size was noticed from 0.88±0.37 μm to 1.0±0.54 μm. Compared to 5× Corn, 5× Beetroot assembly has a size of 0.68±0.25 μm. Values are means±s.d.
For to live-cell fluorescence imagining experiments, HEK293T cells were seeded into 35-mm imaging dishes precoated with poly-D-lysine (Mattek Corporation, P35GC-1.5-14C) and mouse laminin I (Cultrex, 3401-010-02) with a cell density of 4.5×10^5 cells per dish. On the next day, HEK293T cells were transfected with DNA plasmids as indicated in figures with fluorescence imaging experiments using FuGENE HD. Transfections were performed according FuGENE HD manufacturer's instructions. HEK293T cells were then cultured for two days before imaging.
Prior to imaging experiments, HEK293T cells were incubated with 1 μl of Hoechst 33342 (Thermo Fisher Scientific, H3570) per 2 ml of imaging media (phenol red-free Dulbeco's modified Eagle's medium (Thermo Fisher Scientific 31053-028) supplemented with 10% fetal bovine serum (Corning 35-010-CV), 100 U ml-1 of penicillin and […] of streptomycin, 1× GlutaMAX (Thermo Fisher Scientific, 35050-061) and 1 mM sodium pyruvate (Thermo Fisher Scientific, 11360-070)). For imaging experiments of RNA-fluorophore complex, HEK293T cells were incubated with imaging media supplemented with a final concentration of 10 μM fluorophore (DFHO or DFAME) and 5 mM MgCl2 for one hour prior to imaging.
For all imaging experiments, an epifluorescence inverted microscope (Nikon Eclipse TE2000-E) was used equipped with a CoolSnap HQ2 CCD camera and a 130-W Nikon mercury lamp. The microscope and camera were controlled using the NIS-Elements Advanced Research software (Nikon). Cells were imaged with a 60× oil objective with a numerical aperture of 1.4 (Nikon) at 37° C. A FITC filter cube (with excitation filter 470±20 nm, dichroic mirror 495 nm (long pass) and emission filter 525±25 nm) was used for imaging GFP-N-peptide. A YFP filter cube (with excitation filter 500±12 nm, dichroic mirror 520 nm (long pass) and emission filter 542±13.5 nm) was used for imaging Corn-DFHO complex. A tetramethylrhodamine filter cube (with excitation filter 560±20 nm, dichroic mirror 585 nm (long pass) and emission filter 630±37.5 nm) was used for imaging mCherry-MCP and Beetroot-DFAME complex.

[2] = 40 mM HEPES-KOH (pH 7.4), 100 mM KCl, 0.5 mM MgCl2

Emission maximum [1, 2]: 495 nm | Excitation maximum [1, 2]: 426 nm | Fluorescence quantum yield ([1]; compared with Broccoli-DFHBI-1T or Corn-DFHO): 0.00098 | Extinction coefficient ([1]; free DFHBI-1T, at 452 nm): 19,900* M^−1cm^−1 | Brightness (extinction coefficient × quantum yield) ([1]; relative to Broccoli): 0.12
Molecule: CC1=N/C(=C\c2cc(F)c(O)c(F)c2)C(=O)N1CC(F)(F)F [DFHBI-1T, (Z)-4-(3,5-difluoro-4-hydroxybenzylidene)-2-methyl-1-(2,2,2-trifluoroethyl)-1H-imidazol-5(4H)-one]

B1: 5× Corn: circular RNA containing five Corn monomers, same as 5X Corn-MS2, SEQ ID NO: 101 (nucleic acid)
chain: AACCAUGCCGACUGAUGGCAGUACCGUAGGCGAAUUCUUGCCAUGUGUAUGUGGGAGGCCCGGAUAGCUCAGUCGGUAGAGCAGCGGCCGCGCGAUUCGAGGAAGGAGGUCUGAGGAGGUCACUGAAUCGCGCGGCCGCGGGUCCAGGGUUCAAGUCCCUGUUCGGGCCUCCCACAUACUCUGAUGAUCCAAAACUGCCCGAGGAUCAUUCAUGGCAAACUCGACGUUCGUCAGACUCCUCGCGAUGUCUAUGCGGGAGGCCCGGAUAGCUCAGUCGGUAGAGCAGCGGCCGCGCGAUUCGAGGAAGGAGGUCUGAGGAGGUCACUGAAUCGCGCGGCCGCGGGUCCAGGGUUCAAGUCCCUGUUCGGGCCUCCCGCAUAGUCUGAUCAUCCAAAACUGCCCGAGGGGAUGAUUCAUCGCGAAUCGCGACGAUCGUCACUACCGGUUCACUUUGUAGACCAGGCUGGUGUACAACUUGCGACUUUGCCAUGUGUAUGUGGGAGGCCCGGAUAGCUCAGUCGGUAGAGCAGCGGCCGCGCGAUUCGAGGAAGGAGGUCUGAGGAGGUCACUGAAUCGCGCGGCCGCGGGUCCAGGGUUCAAGUCCCUGUUCGGGCCUCCCACAUACUCUGAUGAUCCACGCGUAACAUGAGGAUCACCCAUGUCGAGGUACCAUCAUUCAUGGCAAAGUCGCAAGUAUCGGUCAACCUAGUGGGCCCAGUGACGAUCGUCGCCCAUCGCCUUGUGUCUGUUGGAGGCCCGGAUAGCUCAGUCGGUAGAGCAGCGGCCGCGCGAUUCGAGGAAGGAGGUCUGAGGAGGUCACUGAAUCGCGCGGCCGCGGGUCCAGGGUUCAAGUCCCUGUUCGGGCCUCCAACAGACUCUGACGAUCCAAAACUGCCCGAGGGGAUCGUUCAAGGCGAGAGCUCGUCUGACGAACGUCGAACUCGCCGUGUGUGUGUAGGAGGCCCGGAUAGCUCAGUCGGUAGAGCAGCGGCCGCGCGAUUCGAGGAAGGAGGUCUGAGGAGGUCACUGAAUCGCGCGGCCGCGGGUCCAGGGUUCAAGUCCCUGUUCGGGCCUCCUACACACUCUGACGAUCCAAAACUGCCCGAGGGGAUCGUUCACGGCGAACUCACGUCGGUGGAGCUAGCGCCUACGGUACUGCCAUCAGUCGGCGUGGACUGUAG
modifications: circular
Fraction of RNA in the cell that accumulates in puncta (HEK293T cells): 57±14% | RNA assembly size (HEK293T cells): 1.0±0.54 μm

B2: 5× Beetroot: circular RNA comprising 5× Beetroot fused to boxB, SEQ ID NO: 102 (nucleic acid)
chain: AACCAUGCCGACUGAUGGCAGUACCGUAGGCGAAUUCUUGCCAUGUGUAUGUGGGAGGCCCGGAUAGCUCAGUCGGUAGAGCAGCGGCCGGUUAGGCAGAGGUGGGUGGUGUGGAGGAGUAUCUGUCCGGCCGCGGGUCCAGGGUUCAAGUCCCUGUUCGGGCCUCCCACAUACUCUGAUGAUCCAAAACUGCCCGAGGAUCAUUCAUGGCAAACUCGACGUUCGUCAGACUCCUCGCGAUGUCUAUGCGGGAGGCCCGGAUAGCUCAGUCGGUAGAGCAGCGGCCGGUUAGGCAGAGGUGGGUGGUGUGGAGGAGUAUCUGUCCGGCCGCGGGUCCAGGGUUCAAGUCCCUGUUCGGGCCUCCCGCAUAGUCUGAUCAUCCAAAACUGCCCGAGGGGAUGAUUCAUCGCGAAUCGCGACGAUCGUCACUACCGGUGACUCGCUAUCGGUUAUGGCAUGUACAACUUGCGACUUUGCCAUGUGUAUGUGGGAGGCCCGGAUAGCUCAGUCGGUAGAGCAGCGGCCGGUUAGGCAGAGGUGGGUGGUGUGGAGGAGUAUCUGUCCGGCCGCGGGUCCAGGGUUCAAGUCCCUGUUCGGGCCUCCCACAUACUCUGAUGAUCCACGCGUACAUUGGCCCUGAAAAAGGGCAAGCGAGGUACCAUCAUUCAUGGCAAAGUCGCAAGUAUCGGUCAACCUAGUGGGCCCAGUGACGAUCGUCGCCCAUCGCCUUGUGUCUGUUGGAGGCCCGGAUAGCUCAGUCGGUAGAGCAGCGGCCGGUUAGGCAGAGGUGGGUGGUGUGGAGGAGUAUCUGUCCGGCCGCGGGUCCAGGGUUCAAGUCCCUGUUCGGGCCUCCAACAGACUCUGACGAUCCAAAACUGCCCGAGGGGAUCGUUCAAGGCGAGAGCUCGUCUGACGAACGUCGAACUCGCCGUGUGUGUGUAGGAGGCCCGGAUAGCUCAGUCGGUAGAGCAGCGGCCGGUUAGGCAGAGGUGGGUGGUGUGGAGGAGUAUCUGUCCGGCCGCGGGUCCAGGGUUCAAGUCCCUGUUCGGGCCUCCUACACACUCUGACGAUCCAAAACUGCCCGAGGGGAUCGUUCACGGCGAACUCACGUCGGUGGAGCUAGCGCCUACGGUACUGCCAUCAGUCGGCGUGGACUGUAG
modifications: circular
Fraction of RNA in the cell that accumulates in puncta (HEK293T cells): 27±11% | RNA assembly size (HEK293T cells): 0.68±0.25 μm

B3: 3× Corn: circular RNA containing 3 copies of Corn, SEQ ID NO: 100 (nucleic acid)
chain: AACCAUGCCGACUGAUGGCAGUACCGUAGGCGAAUUCUUGCCAUGUGUAUGUGGGAGGCCCGGAUAGCUCAGUCGGUAGAGCAGCGGCCGCGCGAUUCGAGGAAGGAGGUCUGAGGAGGUCACUGAAUCGCGCGGCCGCGGGUCCAGGGUUCAAGUCCCUGUUCGGGCCUCCCACAUACUCUGAUGAUCCAAAACUGCCCGAGGAUCAUUCAUGGCAAACUCGACGUUCGUCAGACUCCUCGCGAUGUCUAUGCGGGAGGCCCGGAUAGCUCAGUCGGUAGAGCAGCGGCCGCGCGAUUCGAGGAAGGAGGUCUGAGGAGGUCACUGAAUCGCGCGGCCGCGGGUCCAGGGUUCAAGUCCCUGUUCGGGCCUCCCGCAUAGUCUGAUCAUCCAAAACUGCCCGAGGGGAUGAUUCAUCGCGAAUCGCGACGAUCGUCACUACCGGCGUCUGACGAACGUCGAACUCGCCGUGUGUGUGUAGGAGGCCCGGAUAGCUCAGUCGGUAGAGCAGCGGCCGCGCGAUUCGAGGAAGGAGGUCUGAGGAGGUCACUGAAUCGCGCGGCCGCGGGUCCAGGGUUCAAGUCCCUGUUCGGGCCUCCUACACACUCUGACGAUCCAAAACUGCCCGAGGGGAUCGUUCACGGCGAACUCACGUCGGUGGAGCUAGCGCCUACGGUACUGCCAUCAGUCGGCGUGGACUGUAG
modifications: circular
Fraction of RNA in the cell that accumulates in puncta (HEK293T cells): 28±12% | RNA assembly size (HEK293T cells): 0.88±0.37 μm
